Data published in patent US20260103490A1.
Where no end group is shown, it is not given here. [ ]: non-standard residue; d: D form.

Key:
[1] = biological target: NbALFA^ST (NbALFA clone 1G5); assay: off-rate assay: peptide elution from NbALFA^ST resin; tag position C
[2] = biological target: NbALFA^ST (NbALFA clone 1G5); assay: off-rate assay: peptide elution from NbALFA^ST resin; tag position N

Sequence of NbALFA^ST (NbALFA clone 1G5) (VHH, as listed by the source): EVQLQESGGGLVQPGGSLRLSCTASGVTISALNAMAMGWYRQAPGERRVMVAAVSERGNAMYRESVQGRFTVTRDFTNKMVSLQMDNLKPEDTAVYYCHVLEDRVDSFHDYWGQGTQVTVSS

Binder | t1/2 [1] | t1/2 [2]
GPSGLEQELRRRL [gp…. (SEQ ID NO: 108)] | < 2 min | –
MSGLEQELRRRLTP[code s] (not fully specified; printed as MSGLEQELRRRLTPs) […s (SEQ ID NO: 110)] | – | < 2 min
